Experimental data from patent publication US20150329863, “APTAMERS INHIBITING THE ENZYMATIC ACTIVITY OF TYROSINASE” (L V M H RECHERCHE, published 2015).

T1: tyrosinase (endogenous, normal human melanocytes) (Homo sapiens) (UniProt P14679)
T1 sequence: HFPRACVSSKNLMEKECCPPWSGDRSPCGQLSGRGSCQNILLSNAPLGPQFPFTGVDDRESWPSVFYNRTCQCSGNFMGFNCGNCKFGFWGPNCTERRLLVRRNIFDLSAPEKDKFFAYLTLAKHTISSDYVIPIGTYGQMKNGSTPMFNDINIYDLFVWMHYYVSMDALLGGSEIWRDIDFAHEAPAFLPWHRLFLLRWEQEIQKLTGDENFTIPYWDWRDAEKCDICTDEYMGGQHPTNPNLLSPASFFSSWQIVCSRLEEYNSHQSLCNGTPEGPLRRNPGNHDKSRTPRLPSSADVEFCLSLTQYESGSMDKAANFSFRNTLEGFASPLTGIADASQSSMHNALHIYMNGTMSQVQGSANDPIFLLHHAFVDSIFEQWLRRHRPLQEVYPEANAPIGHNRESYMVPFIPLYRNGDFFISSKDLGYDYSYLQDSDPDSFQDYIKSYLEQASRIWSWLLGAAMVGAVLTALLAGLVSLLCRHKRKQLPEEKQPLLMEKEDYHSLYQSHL

T2: tyrosinase (TYR) (Homo sapiens, UniProt P14679 P14679:19-529)
T2 sequence: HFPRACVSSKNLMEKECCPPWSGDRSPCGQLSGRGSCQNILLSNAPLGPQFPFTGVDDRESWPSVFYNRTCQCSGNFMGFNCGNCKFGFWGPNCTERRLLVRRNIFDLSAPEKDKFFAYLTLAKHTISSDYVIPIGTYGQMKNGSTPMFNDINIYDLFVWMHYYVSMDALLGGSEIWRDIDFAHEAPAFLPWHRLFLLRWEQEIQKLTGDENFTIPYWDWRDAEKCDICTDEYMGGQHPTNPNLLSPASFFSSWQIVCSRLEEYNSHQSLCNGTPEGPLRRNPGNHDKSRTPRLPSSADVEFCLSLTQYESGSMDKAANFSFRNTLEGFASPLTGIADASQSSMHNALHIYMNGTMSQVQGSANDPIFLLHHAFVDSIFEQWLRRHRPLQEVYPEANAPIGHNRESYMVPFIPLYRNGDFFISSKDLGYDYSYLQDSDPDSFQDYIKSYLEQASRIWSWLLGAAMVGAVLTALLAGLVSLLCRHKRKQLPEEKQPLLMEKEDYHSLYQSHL


Tests used:
[1] = molecular target: T1, tyrosinase (endogenous, normal human melanocytes) (Homo sapiens); assay: cell_activity; conditions: 4-200 nM, no dose dependence; 72 h melanocyte treatment, L-DOPA oxidation
tyrosinase (TYR) = molecular target: T2, tyrosinase (TYR); assay: SPR; 16 RU at 500 nM and 42 RU at 1 uM tyrosinase on about 1000 RU immobilized biotinylated aptamer; PBS-Mg buffer, 23 C; conditions: tags: N-terminal GST tag, Abnova; label: biotin (SPR); predicted long imperfect stem-loop with 5-nt internal loop and 5-nt apical loop
Method: All the experiments were carried out on a Biacore 3000 device with PBS—Mg buffer at 23° C. The biotinylated oligonucleotides—heated at 75° C. for 5 minutes, placed on ice for 5 minutes and then placed at room temperature for at least 5 minutes—were immobilized on streptavidin-coated sensor chips (XanTec bioanalytics). The oligonucleotides were injected at 100 nM for 4 minutes at 5 μl/min to reach 800 to 1000 RU.
Tyrosinase and the GST-His control were injected at 500 nM and 1 μM at a rate of 20 μl/min at 23° C. The same injections were carried out with PBS—Mg buffer and tyrosinase storage buffer to subtract the effects of the buffer from the specific sensorgram.
The binding of this candidate, T10.1, and of truncated versions derived from the full-length candidate (Table 1) was investigated by surface plasmon resonance (SPR). About 1000 resonance units (RU) of biotinylated candidate T10.1 were immobilized and tyrosinase was injected at 500 nM or 1 μM. Signals of 16 and 42 RU were detected for 500 nM and 1 μM, respectively, indicating interaction between candidate T10.1 and tyrosinase (FIG. 2).

| Molecule | activity [1] [% inhibition] | binding result (tyrosinase (TYR)) |
| --- | --- | --- |
| GCCTGTTGTGAGCCTCCTGTCGAANNNNNNNNNNNNNNNNNNNNNNNNNNNNNNTTGAGCGTTTATTCTTGTCTCCC [round 10 population] | > 75 | – |
| T10.1 (ssDNA) DNA: GCCTGTTGTGAGCCTCCTGTCGAACGCAATGGGCGCAGATTGGAAGGCCTAGCATTGAGCGTTTATTCTTGTCTCCC | – | binds |
